The experiment concerns the target Rabbit anti-human MDL-1 polyclonal antibodies. Put plainly: cell-based or functional assay.

B1: human MDL-1 extracellular domain protein expressed in baculovirus (receptor)
chain: PQIFNKSNDGFTTTRSYGTVSQIFGSSSPSPNGFITTRSYGTVCPKDWEFYQARCFFLSTSESSWNESRDFCKGKGSTLAIVNTPEKLKFLQDITDAEKYFIGLIYHREEKRWRWINNSVFNGNVTNQNQNFNCATIGLTKTFDAASCDISYRRICEKNAK
Turning to B1, the “IC50 for inhibition of α-hMDL-1 pAb-induced β-galactosidase reporter signaling in the CD3zH912Z1 line” value came out at 0.1 nM.

(Values after patent US20070179094A1 (Bayer, published 2007).)
